± gives the uncertainty stated by the source.
Experiment: protein stability index of a GFP-peptide fusion (yeast GPS) (PSI 1-4); higher = more stable; sorted into four equal gates, so the index is relative within each strain
Procedure, shortened: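 Sequencing reads from sorted gates were used to score each peptide. The library consisted of tiled 17-residue yeast protein peptides fused downstream of GFP on a Cherry-expressing plasmid, pooled and carried in yeast. Mid-log cultures in leucine-free medium were split into four equal gates by GFP/Cherry ratio, and each gate's plasmids were PCR-amplified and Illumina-sequenced. The protein stability index adds up, over all gates, the read frequency multiplied by the gate number.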

| Sequence | protein stability index (doa10∆) | protein stability index (pdr5∆) | protein stability index (san1∆) | protein stability index (ubr1∆) |
| --- | --- | --- | --- | --- |
| QPKAPRAPKVIHGQDFQ [ISW2] | 2.88 ± 0.089 | 3.02 ± 0.097 | 2.94 ± 0.05 | 3.19 ± 0.058 |
| QPQETEEHHEEEPSRVD [RPT4] | 3.56 ± 0.064 | 3.44 ± 0.1 | 3.23 ± 0.074 | 3.22 ± 0.086 |
| QPSKVSSNVQQPQQQLG [RTT102] | 2.82 ± 0.081 | 2.88 ± 0.094 | 2.61 ± 0.082 | 3.03 ± 0.1 |
| QPTNFTTKRLWSEITES [MCD1] | 1.99 ± 0.088 | 2.38 ± 0.066 | 2.04 ± 0.089 | 2.04 ± 0.09 |
| QPYEDRPFEGLFVISTE [RRP45] | 2.96 ± 0.052 | 3.12 ± 0.048 | 3.11 ± 0.048 | 3.05 ± 0.038 |
| QQIWKSPNFKNYLKYLE [SOH1] | 1.72 ± 0.047 | 1.91 ± 0.047 | 1.61 ± 0.047 | 2.22 ± 0.062 |
| QQLNKQRQDFERVRLRP [SNF6] | 2.85 ± 0.062 | 2.73 ± 0.079 | 2.75 ± 0.069 | 2.79 ± 0.045 |
| QQMIITRLKSLLKPFHV [SIR3] | 2.17 ± 0.07 | 2.08 ± 0.053 | 2 ± 0.073 | 1.99 ± 0.035 |
| QQMQPPNSSANNNPLQQ [GAL11] | 3.02 ± 0.055 | 2.9 ± 0.05 | 2.89 ± 0.041 | 2.95 ± 0.048 |
| QQQLRNQIQRQQQQQFR [SNF5] | 1.43 ± 0.18 |  | 1.4 ± 0.21 | 1.55 ± 0.061 |
| QQQQMQQQQQQQQQQQN [SSN2] | 2.31 ± 0.11 | 2.63 ± 0.098 | 2.8 ± 0.18 | 2.83 ± 0.1 |
| QQQQQQQQGQIPQSQQV [SNF5] | 2.231 ± 0.016 | 2.63 ± 0.018 | 2.257 ± 0.02 | 2.511 ± 0.02 |
| QQVPPLPDELTLSYDDI [DLS1] | 2.56 ± 0.045 | 2.83 ± 0.055 | 2.69 ± 0.05 | 2.74 ± 0.039 |
| QQWGNDFYKRDPRIAPL [FAS2] | 1.88 ± 0.058 | 2 ± 0.048 | 1.87 ± 0.1 | 2 ± 0.05 |
| QRQDFERVRLRPEQLSN [SNF6] | 1.98 ± 0.05 | 2.43 ± 0.062 | 2.21 ± 0.064 | 2.25 ± 0.034 |
| QSEDLSHAVEFFMSERS [YML103C/NUP188] | 3.29 ± 0.077 | 3.37 ± 0.089 | 3.25 ± 0.066 | 3.18 ± 0.059 |
| QSKIDLTKKKNEEINKK [SEM1] |  | 3.47 ± 0.24 | 2.87 ± 0.14 | 3.21 ± 0.076 |
| QSNYGIYSSDAQGDPNL [NUT1] | 3.03 ± 0.077 | 2.92 ± 0.065 | 2.51 ± 0.056 | 3.06 ± 0.063 |
| QSYFSQLKFEGFALNSD [BRR2] | 1.35 ± 0.05 | 1.26 ± 0.045 | 1.17 ± 0.094 | 1.43 ± 0.04 |
| QTATQLLERGRLRKRVT [SMC2] | 3.04 ± 0.11 | 3.04 ± 0.083 | 2.92 ± 0.064 | 2.42 ± 0.078 |
| QTEIKDIILGQNIKAPS [PRP8] | 2.6 ± 0.087 | 3.04 ± 0.074 | 2.58 ± 0.11 | 2.78 ± 0.07 |
| QTQAIAQQQQLSNYPQQ [YGR119C/NUP57] | 2.79 ± 0.058 | 3.15 ± 0.062 | 2.58 ± 0.048 | 2.97 ± 0.046 |
| QTRWGLPSGRQDGVLLV [FAS2] | 1.65 ± 0.12 |  | 1.59 ± 0.24 | 1.32 ± 0.15 |
| QTVSNKEDAKATMENIQ [SRP54] | 2.98 ± 0.062 | 3.18 ± 0.066 | 2.91 ± 0.075 | 2.99 ± 0.056 |
| QVARTNLDGTKAVKLRK [ROX3] | 3.03 ± 0.07 | 3.13 ± 0.063 | 2.98 ± 0.051 | 3.15 ± 0.058 |
| QVGERIKQTFKNDLFVI [RPO21] | 2.38 ± 0.066 | 2.36 ± 0.07 | 2.56 ± 0.06 | 2.49 ± 0.064 |
| QVGLNFELSFTGAPPYY [YMR129W/POM152] | 2.35 ± 0.053 | 2.08 ± 0.061 | 1.58 ± 0.061 | 1.93 ± 0.031 |
| QVNQLQRILEVLGTPDQ [SSN3] | 1.49 ± 0.043 | 1.69 ± 0.037 | 1.34 ± 0.05 | 1.51 ± 0.038 |

| Sequence | protein stability index (doa10∆) | protein stability index (pdr5∆) | protein stability index (san1∆) | protein stability index (ubr1∆) |
| --- | --- | --- | --- | --- |
| QVSNFAPQVYIITKNEN [GAL11] | 2.96 ± 0.16 | 1.98 ± 0.11 | 2.38 ± 0.26 | 1.67 ± 0.084 |
| QVVLGGTSKYLINGHRA [SMC2] | 2.88 ± 0.059 | 3.19 ± 0.066 | 2.97 ± 0.062 | 2.96 ± 0.065 |
| QWSATWIAMRREKRDRT [PRP8] | 2.23 ± 0.089 | 2.64 ± 0.081 | 2.76 ± 0.18 | 2.73 ± 0.095 |
| QYIRTLVSEARTLWPEF [SSN8] | 2.61 ± 0.052 | 2.67 ± 0.052 | 2.39 ± 0.06 | 2.42 ± 0.046 |
| RAANQGALPPDLSLIVK [CYT1] | 2.95 ± 0.11 | 3 ± 0.074 | 3.03 ± 0.18 | 2.87 ± 0.074 |
| RAIPFRRFNSSIGRTAQ [RPL17A] | 2.91 ± 0.07 | 2.87 ± 0.08 | 2.89 ± 0.097 | 2.68 ± 0.06 |
| RAIRSEKYGKQVYDLLK [BRR2] |  |  | 2.94 ± 0.18 | 3.26 ± 0.13 |
| RALVEHIIQAKADAQRE [RPL19A] | 1.67 ± 0.26 |  |  |  |
| RANLRKYREGQVLFQGL [POP1] | 2.83 ± 0.095 | 2.31 ± 0.071 | 2.02 ± 0.088 | 2.96 ± 0.063 |
| RAPIYHSKFRSSSGNTW [YML031W/NDC1] | 2.43 ± 0.11 | 2.34 ± 0.06 | 3.15 ± 0.084 | 2.59 ± 0.06 |
| RARGPMQVLTRQPVEGR [RPB2] | 2.88 ± 0.2 | 2.36 ± 0.21 | 2.79 ± 0.11 | 2.98 ± 0.24 |
| RASKALIERYYPKLTLD [RPS17A] |  | 2.51 ± 0.14 |  | 2.37 ± 0.25 |
| RAVLTPLITRHCYPRQL [RRP46] | 2.4 ± 0.048 | 2.18 ± 0.037 | 2.36 ± 0.052 | 2.39 ± 0.033 |
| RCIGDSDNVSFEIQGVP [YMR129W/POM152] | 3.17 ± 0.1 | 3.39 ± 0.085 | 3.28 ± 0.059 | 3.35 ± 0.06 |
| RDDGKRELLVEGYGLRD [RPO31] | 2.4 ± 0.079 | 2.56 ± 0.072 | 2.72 ± 0.077 | 2.74 ± 0.068 |
| RDKVCKQINEARDEILP [PGD1] | 1.77 ± 0.091 | 1.6 ± 0.14 | 1.5 ± 0.16 |  |
| RDLILTEYGRKYNVNIS [PRP8] | 2.2 ± 0.18 | 2.42 ± 0.098 | 3.14 ± 0.23 | 2.28 ± 0.059 |
| RDMIMKRNSDKVEYKIV [ITC1] | 1.78 ± 0.078 | 1.83 ± 0.078 | 1.85 ± 0.12 | 1.31 ± 0.047 |
| RDYLVDTLKLRENLHIL [RRP6] | 3.52 ± 0.098 | 3.29 ± 0.096 | 3.4 ± 0.069 | 3.29 ± 0.084 |
| REDIDDPLAKVNVLLQS [BRR2] | 2.91 ± 0.12 | 3.04 ± 0.088 | 3.19 ± 0.092 | 2.96 ± 0.11 |
| REEAIGFIRGSNKFAEV [SMC3] | 3.01 ± 0.093 | 2.94 ± 0.074 | 2.95 ± 0.094 | 2.67 ± 0.08 |
| REIHNEAESQLRAAQQQ [FAS2] | 2.91 ± 0.088 | 2.36 ± 0.07 | 2.86 ± 0.076 | 2.91 ± 0.053 |
| RELFVMAREHAPSIIFM [RPT6] | 1.82 ± 0.078 | 1.99 ± 0.085 | 1.4 ± 0.23 | 1.71 ± 0.078 |
| RELTKNILWRIADKTTY [SIR4] | 3.02 ± 0.094 | 2.6 ± 0.065 | 2.68 ± 0.11 | 3.02 ± 0.05 |
| RENALYDYYALQLLPLQ [SNF2] | 2.63 ± 0.078 | 2.74 ± 0.045 | 2.72 ± 0.056 | 2.77 ± 0.042 |
| RENLHILNEVFTNPSIV [RRP6] | 2.26 ± 0.076 | 2.93 ± 0.063 | 2.5 ± 0.058 | 2.25 ± 0.053 |
| RENVKSKDEPVSKAVES [SIR4] | 3.58 ± 0.15 | 3.73 ± 0.12 | 2.93 ± 0.19 | 3.31 ± 0.18 |
